From US20230212319A1, “NOVEL ANTIGEN BINDING DOMAINS AND SYNTHETIC ANTIGEN RECEPTORS INCORPORATING THE SAME” (University of Southern California, priority 2020, published 2023)

Legend:
Format in all cases: cell-based
SKOV-3 cells = test: JNG assay, co-culture with SKOV-3 cells; settings: co-culture with SKOV-3 cells
Protocol: Cellular supernatant is collected and assayed for the induction of cytokines (e.g., IL2).
JNG (Jurkat cells expressing EGFP under an NFAT promoter) were infected with lentiviral vectors encoding different single chain and multi-chain SARs by spinfection in the presence of 8 µg/ml of Polybrene® (Sigma, Catalog no. H9268). The Jurkat-NFAT-GFP cells are engineered in such a way that the IL-2 promoter, which carries NFAT binding sites, is cloned upstream of the GFP gene. These cells have been used to study signaling via TCR and CAR. The different SARs were stably expressed in Jurkat NFAT-GFP cells by lentiviral mediated gene transfer, followed by selection with puromycin or blasticidin. No drug selection was used in case the construct lacked an antibiotic resistance gene. The SAR-expressing Jurkat-NFAT-GFP cells were cocultured with the target cells at E:T ratio of approximately 1:2 for approximately 4 hours to 18 hours. When the interaction between SIRs and their target antigen results in activation of the NFAT pathway, GFP expression is induced. […] GFP expression was monitored by FACS analysis. The Jurkat-NFAT-GFP (parental) cells were used as control. The structure of different constructs can be determined based on their names. […] The sequence of the other constructs in the table can be similarly determined from their names and by referring to the different Tables of this disclosure that provide the names and SEQ ID NO of the different modules. Alternatively, the composition and modular architecture of the different SAR constructs can be determined from their sequences by bioinformatics tools, including using nucleic acid and amino acids homology searches. A SAR is considered positive in the assay in case the SAR expressing Jurkat-NFAT-GFP cells show greater % GFP positive cells when cultured with the target cell line as compared to parental Jurkat-NFAT-GFP cells. […] In general, the number +/-, +, 2+, 3+, 4+, 5+ refer to approximately 5%, 10%, 20%, 30%, 40% and 50% GFP positive cells. The % of GFP induction in the above assay is dependent not only the relative strength of the SAR but also, among other factors, on the relative level of expression of the SAR in the JNG cells and the relative level of expression of the target antigen in the target cell line. To control for the difference in gene transduction efficiency of the different SAR constructs, the experiment was conducted with JNG cells transduced with SAR constructs co-expressing a drug resistance gene (e.g., puromycin or PAC) followed by drug selection to generate a stable population of SAR-expressing cells. It is to be noted that the drug resistance gene (e.g., PAC) in the SAR constructs is optional and in vivo studies were conducted with SAR constructs lacking the PAC gene.

RAJI cells = test: JNG assay, co-culture with RAJI cells; settings: co-culture with RAJI cells
How it was run: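 Jurkat NFAT-GFP (JNG) cells stably transduced with SARs by lentivirus, with drug selection where the construct carried a resistance gene, then co-cultured with target cells at E:T ~1:2 for ~4–18 h. % GFP-positive cells measured by FACS against parental JNG; +/- to 5+ correspond to ~5–50% GFP-positive.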

Nalm6 cells = test: JNG assay, co-culture with Nalm6 cells; settings: co-culture with Nalm6 cells
How it was run: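 GFP expression induced through the NFAT pathway was monitored by FACS once SAR-bearing Jurkat reporters had been cultured with target cells at an approximate 1:2 ratio for 4 to 18 hours; parental reporter cells served as the baseline.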

Measured: GFP induction / activity

B1: SEQ ID NO: 22177: trispecific SAR construct targeting CD19 and CD20 and coexpressing the ligand binding domain of NKG2D (protein)
chain: MALPVTALLLPLALLLHAARPLFNQEVQIPLTESYCGPCPKNWICYKNNCYQFFDESKNWYESQASCMSQNASLLKVYSKEDQDLLKLVKSYHWMGLVHIPTNGSWQWEDGSILSPNLLTIIEMQKGDCALYASSFKGYIENCSTPNTYICMQRTVGGGGSGGGGSGGGGSDLFNQEVQIPLTESYCGPCPKNWICYKNNCYQFFDESKNWYESQASCMSQNASLLKVYSKEDQDLLKLVKSYHWMGLVHIPTNGSWQWEDGSILSPNLLTIIEMQKGDCALYASSFKGYIENCSTPNTYICMQRTVGTGGGGSGGGGSGGGGSEFDIQMTQSPSSLSASVGDRVTITCKASDHINNWLAWYQQKPGQAPKLLIYGATTLETGVPSRFSGSGSGTDYTLTISSLQPEDFATYYCQQSWNTPWTFGQGTKLEIKRLEDLKNVFPPEVAVFEPSKAEIAHTQKATLVCLATGFYPDHVELSWWVNGKEVHSGVCTDPQPLKEQPALNDSRYCLSSRLRVSATFWQNPRNHFRCQVQFYGLSENDEWTQDRAKPVTQIVSAEAWGRADCGITSASYHQGVLSATILYEILLGKATLYAVLVSALVLMAMVKRKDSRGRAKRSGSGATNFSLLKQAGDVEENPGPTSATMDWIWRILFLVGAATGAHSGPQVQLQESGGGLAQAGGSLRLSCAASGRTFSMGWFRQAPGKEREFVAAITYSGGSPYYASSVRGRFTISRDNAKNTVYLQMNSLKPEDTAVYYCAANPTYGSDWNAENWGQGTQVTVSSGSGGGGSGGGGSGGGGSFEQVQLQQPGAELVKPGASVKMSCKASGYAFSSYWINWMKQKPGQGLEWIGQIYPGDGDTNYNGKFKGRATLTADTSSSTAYMQLSSLTSEDSAVYFCARSITTVVGCAMDYWGQGTSVTVSSTRIQNPDPAVYQLRDSKSSDKSVCLFTDFDSQTNVSQSKDSDVYITDKCVLDMRSMDFKSNSAVAWSNKSDFACANAFNNSIIPEDTFFPSSDVPCDVKLVEKSFETDTNLNFQNLSVIGFRILLLKVAGFNLLMTLRLWSSRAKRSGSGVKQTLNFDLLKLAGDVESNPGPSRGHMTEYKPTVRLATRDDVPRAVRTLAAAFADYPATRHTVDPDRHIERVTELQELFLTRVGLDIGKVWVADDGAAVAVWTTPESVEAGAVFAEIGPRMAELSGSRLAAQQQMEGLLAPHRPKEPAWFLATVGVSPDHQGKGLGSAVVLPGVEAAERAGVPAFLETSAPRNLPFYERLGFTVTADVEVPEGPRTWCMTRKPGA
robust activity: SKOV-3 cells | RAJI cells | Nalm6 cells
